Measurements reported in PMC4493074.
pKd: −log10 of the molar value.

Target: CD31 (PECAM-1) (Homo sapiens) (UniProt P16284)
Conditions: 5-(N-naphthylcarboxyamide)-2'-deoxyuridine (NapdU) replaces dT; SOMAmer; Flow cytometry: 1x PBS (pH 7.4), 2% FBS, 5 mM MgCl2, 0.2 mM dextran sulfate, room temperature, 15 min; aptamers heated at 95 C 5 min and cooled; Kd assay …

UniProt P16284, sequence (P16284 28-601): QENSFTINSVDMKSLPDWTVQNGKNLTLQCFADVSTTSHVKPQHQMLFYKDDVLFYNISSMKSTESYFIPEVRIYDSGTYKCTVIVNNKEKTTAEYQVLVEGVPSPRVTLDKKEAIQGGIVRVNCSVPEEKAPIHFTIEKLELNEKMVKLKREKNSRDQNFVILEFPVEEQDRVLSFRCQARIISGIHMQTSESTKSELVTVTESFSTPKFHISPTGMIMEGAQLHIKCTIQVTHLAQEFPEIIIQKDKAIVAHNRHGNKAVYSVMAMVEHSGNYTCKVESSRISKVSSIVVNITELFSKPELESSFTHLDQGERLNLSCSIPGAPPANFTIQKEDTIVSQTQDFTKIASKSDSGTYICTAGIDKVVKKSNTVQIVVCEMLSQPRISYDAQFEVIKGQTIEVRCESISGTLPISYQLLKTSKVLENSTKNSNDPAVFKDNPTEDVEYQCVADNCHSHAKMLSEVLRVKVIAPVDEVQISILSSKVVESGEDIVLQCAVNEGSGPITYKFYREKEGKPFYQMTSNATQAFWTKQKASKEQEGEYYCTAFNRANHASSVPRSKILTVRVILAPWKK

Q: With “TCAGCCGCCAGCCAGTTCGUAGAGGAGGUACGUAAUGUCUGGGUAUACCCCGAUAAUUGACCAGAGCACCACAGAG [AT-1 (CD31 aptamer clone 1)]” as the sequence, how does the pKd read?
A: 8.64
